Two sequences from US8071548B2, “Method of reducing injury to mammalian cells” (Nono, Inc., priority 2002, dated 2011) can be followed below.

For series [1], the target named is NMDAR/PSD-95 interaction (Rattus norvegicus, UniProt P31016). It is filed as binding. Particulars: as compared with controls.
The subject of series [2] is cultured cortical neurons. Kind of series: Intracellular peptide delivery into cortical neuronal cultures (dansyl fluorescence, confocal microscopy). Particulars: bath applied to cultured cortical neurons; dansyl peptides 10 μM. It is filed as cell-based, mouse. Here is the method:
I bath applied these to cultured cortical neurons and observed their fluorescence by confocal microscopy. […] Tat-NR2B9c-dansyl was detectable in the neurons within 10 min of the start of the application and the peptide accumulated to a maximum level over the next 20 min (FIG. 5C). This level was maintained until the dansyl-Tat-NR2B9c was washed from the bath and the peptide remained detectable within the neurons for more than 5 hours thereafter.

No end group written: not given here.

NMDAR/PSD-95 interaction, sequence (P31016 whole entry): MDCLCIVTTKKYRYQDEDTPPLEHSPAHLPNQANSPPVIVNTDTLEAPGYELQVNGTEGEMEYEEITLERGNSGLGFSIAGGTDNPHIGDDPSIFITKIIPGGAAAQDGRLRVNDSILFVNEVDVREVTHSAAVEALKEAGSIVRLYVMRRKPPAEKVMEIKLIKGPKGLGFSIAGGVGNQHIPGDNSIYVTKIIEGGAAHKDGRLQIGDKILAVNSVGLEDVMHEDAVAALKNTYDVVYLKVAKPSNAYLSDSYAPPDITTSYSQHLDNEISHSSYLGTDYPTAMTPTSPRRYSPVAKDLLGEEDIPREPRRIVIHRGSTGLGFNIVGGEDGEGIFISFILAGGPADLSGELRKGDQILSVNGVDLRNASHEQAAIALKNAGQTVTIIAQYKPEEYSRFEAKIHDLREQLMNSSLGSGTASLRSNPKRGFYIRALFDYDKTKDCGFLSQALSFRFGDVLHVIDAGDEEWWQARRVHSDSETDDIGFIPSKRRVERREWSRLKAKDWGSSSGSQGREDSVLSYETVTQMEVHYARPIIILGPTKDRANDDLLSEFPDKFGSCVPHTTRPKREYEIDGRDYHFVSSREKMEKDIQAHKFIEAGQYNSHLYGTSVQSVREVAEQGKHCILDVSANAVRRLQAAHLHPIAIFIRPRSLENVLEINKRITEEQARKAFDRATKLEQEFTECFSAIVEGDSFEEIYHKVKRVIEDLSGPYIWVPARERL

Regarding KALGISYGRKK [Tat38-48], the “reduction of co-immunoprecipitation of PSD-95 with NR2B (optical density signal)” value in series [1] is recorded as “none of the three control peptides reduced”. On to KLSSIESDV [NR2B9c], for which the “entry into cells / intracellular fluorescence” value in series [2] is on record as “did not enter cells”.
